Test system: peptide library, one residue held at a place counted from the S/T acceptor
Test: relative phosphorylation of the sub-library (ratio to the mean residue at this position); higher = residue favoured
Procedure, shortened: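 Each biotinylated degenerate peptide sub-library fixed one residue at one position around a central Ser/Thr and was incubated with a purified recombinant kinase, a human or orthologue construct, in 384-well plates. The 90 min reactions, under kinase-specific conditions, contained 50 μM peptide and 50 μM ATP spiked with γ-32P-ATP. Phosphorylation was read by phosphorimaging spots on streptavidin membranes and quantifying them by densitometry. Relative sub-library phosphorylation expresses each value as a ratio to the mean residue at that position.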

Chain of GRK3, construct: Full length, human (P35626 whole entry, looked up): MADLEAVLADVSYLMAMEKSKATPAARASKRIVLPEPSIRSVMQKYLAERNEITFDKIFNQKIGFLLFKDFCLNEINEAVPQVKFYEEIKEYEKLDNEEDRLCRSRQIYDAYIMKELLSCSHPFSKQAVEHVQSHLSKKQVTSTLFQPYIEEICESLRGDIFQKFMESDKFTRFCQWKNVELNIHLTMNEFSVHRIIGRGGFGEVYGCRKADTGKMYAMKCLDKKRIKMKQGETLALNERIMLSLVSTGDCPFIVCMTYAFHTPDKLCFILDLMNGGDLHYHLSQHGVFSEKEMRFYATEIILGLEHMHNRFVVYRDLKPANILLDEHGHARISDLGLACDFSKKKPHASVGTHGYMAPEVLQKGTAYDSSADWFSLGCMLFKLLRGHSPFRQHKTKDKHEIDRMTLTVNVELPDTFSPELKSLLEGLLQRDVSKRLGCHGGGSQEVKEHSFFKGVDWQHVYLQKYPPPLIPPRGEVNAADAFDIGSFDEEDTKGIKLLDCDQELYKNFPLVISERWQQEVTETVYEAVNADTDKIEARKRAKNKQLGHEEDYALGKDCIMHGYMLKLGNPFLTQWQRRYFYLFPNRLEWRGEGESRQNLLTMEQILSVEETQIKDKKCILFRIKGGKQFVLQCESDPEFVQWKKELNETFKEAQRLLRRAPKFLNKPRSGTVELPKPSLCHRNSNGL
Chain of GRK1, construct: Full length, human (Q15835 whole entry, looked up): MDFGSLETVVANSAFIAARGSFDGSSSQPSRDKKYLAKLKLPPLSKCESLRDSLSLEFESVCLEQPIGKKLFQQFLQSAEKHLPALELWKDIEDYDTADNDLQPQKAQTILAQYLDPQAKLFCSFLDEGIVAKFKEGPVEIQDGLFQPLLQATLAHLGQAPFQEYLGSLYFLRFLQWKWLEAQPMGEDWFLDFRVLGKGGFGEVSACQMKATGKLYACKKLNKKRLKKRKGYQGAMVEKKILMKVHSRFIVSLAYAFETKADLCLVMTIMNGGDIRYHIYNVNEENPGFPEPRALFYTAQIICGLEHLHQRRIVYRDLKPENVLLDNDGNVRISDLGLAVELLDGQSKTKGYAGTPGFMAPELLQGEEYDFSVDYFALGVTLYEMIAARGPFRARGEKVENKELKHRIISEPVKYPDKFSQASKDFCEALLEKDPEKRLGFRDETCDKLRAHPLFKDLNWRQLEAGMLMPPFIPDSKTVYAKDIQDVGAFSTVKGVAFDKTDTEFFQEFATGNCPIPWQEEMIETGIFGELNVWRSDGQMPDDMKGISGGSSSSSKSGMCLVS

GRK1, construct: Full length, human (from UniProt Q15835)
relative phosphorylation
Conditions	at +1	at +2	at +3	at +4	at -1	at -2	at -3	at -4	at -5
A fixed	0.624	1.06	0.886	1.02	0.737	0.553	0.76	1.15	1.16
D fixed	0.767	1.81	2.19	2.5	1.31	0.963	1.16	1.43	2.29
E fixed	2.89	1.47	2.19	2.42	1.39	1.28	1.19	1.75	1.74
F fixed	0.711	0.778	0.638	0.645	0.641	2.3	0.881	0.585	0.659
G fixed	0.605	0.939	1.68	1.06	0.652	0.519	0.912	1.29	2.07
H fixed	0.592	0.984	0.958	0.932	0.962	0.701	0.746	0.843	0.894
I fixed	1.47	0.921	0.682	0.734	0.654	0.86	0.841	0.627	0.556
K fixed	0.65	0.587	0.793	0.622	1.56	0.619	0.706	0.673	0.682
L fixed	1.23	0.823	0.662	0.653	0.852	1.02	0.583	0.568	0.491
M fixed	0.973	0.961	0.721	0.662	0.723	0.708	0.671	0.645	0.533
N fixed	0.621	1.3	0.861	0.861	1.23	0.691	1.07	0.933	0.983
P fixed	0.522	0.592	0.823	1.18	2.04	1.11	2.74	2.68	1.31
Q fixed	1.11	1.06	0.956	0.82	0.932	0.65	0.966	0.897	0.708
R fixed	0.605	0.682	0.633	0.544	0.993	1.02	1.07	0.813	0.678
V fixed	2.36	1.03	0.703	0.8	0.811	0.66	0.956	0.777	0.638
W fixed	0.575	0.917	0.874	0.841	0.566	0.74	0.62	0.673	0.799
Y fixed	0.701	1.1	0.754	0.707	0.953	2.61	1.13	0.662	0.81
pThr fixed	2.35	0.972	1.21	3.6	3.08	4.99	3.2	1.84	1.43
pTyr fixed	3.09	2.14	1.38	2.98	1.92	1.75	1.76	1.46	1.13

GRK3, construct: Full length, human (from UniProt P35626)
relative phosphorylation
Conditions	at +1	at +2	at +3	at +4	at -1	at -2	at -3	at -4	at -5
A fixed	0.782	1.39	0.849	0.868	0.913	0.745	0.971	1	1.03
D fixed	1.07	0.888	1.9	1.5	1.25	1.53	2.52	1.73	1.39
E fixed	1.75	0.887	1.99	1.36	1.62	4.07	3.01	1.78	1.2
F fixed	1.36	1.18	0.882	0.855	0.914	0.895	0.666	0.868	1.1
G fixed	0.857	0.967	1.04	1	0.703	0.784	0.822	0.962	0.9
H fixed	0.973	1.22	1.03	1.06	1.06	0.755	0.631	0.892	0.929
I fixed	1.27	1.44	0.933	1.1	0.913	0.573	0.649	0.855	1.06
K fixed	0.51	0.51	0.614	0.725	0.658	0.59	0.629	0.843	0.824
L fixed	0.766	0.705	0.898	0.829	0.979	0.688	0.604	0.844	1.03
M fixed	1.24	0.904	0.979	0.994	1.05	0.746	0.68	1	0.964
N fixed	0.742	0.874	0.922	1.03	1.02	0.854	0.845	0.932	0.946
P fixed	0.477	0.495	0.638	1.01	1.4	0.833	0.907	0.974	0.788
Q fixed	1.03	0.781	0.712	0.877	0.843	0.733	0.663	0.83	0.758
R fixed	0.646	0.614	0.631	0.709	0.819	1.13	1.6	1.1	0.933
V fixed	1.55	1.71	0.862	0.843	1.15	0.612	0.603	0.729	0.893
W fixed	0.93	0.948	0.922	1.25	0.595	0.657	0.592	0.815	1.02
Y fixed	1.03	1.48	1.2	0.992	1.12	0.794	0.605	0.847	1.23
pThr fixed	7.07	1.13	1.13	2.86	1.38	5.37	5.68	2.74	1.72
pTyr fixed	3.27	1.99	2.21	1.72	3.26	18.2	6.04	3.04	2.78

Source: the supplement of paper PMC9876800
